Square brackets hold non-standard residues; d marks the D form. Ends that are not written are not given here. deamidated = deamidated asparagine; Met(O) = CS(=O)CC[C@H](N)C(=O)O

The test has as its target T1, mouse ADAMTS7 (Mus musculus, UniProt Q68SA9).
T1 construct: Full-length mouse Adamts7 1-1857 (Uniprot Q68SA9, WT or E373Q catalytic mutant); expressed in transfected cells; host or cells: Human Coronary Artery Smooth Muscle Cells (HCA-SMC, Lonza), adenovirus 50 MOI
T1 sequence (Q68SA9 221-1657): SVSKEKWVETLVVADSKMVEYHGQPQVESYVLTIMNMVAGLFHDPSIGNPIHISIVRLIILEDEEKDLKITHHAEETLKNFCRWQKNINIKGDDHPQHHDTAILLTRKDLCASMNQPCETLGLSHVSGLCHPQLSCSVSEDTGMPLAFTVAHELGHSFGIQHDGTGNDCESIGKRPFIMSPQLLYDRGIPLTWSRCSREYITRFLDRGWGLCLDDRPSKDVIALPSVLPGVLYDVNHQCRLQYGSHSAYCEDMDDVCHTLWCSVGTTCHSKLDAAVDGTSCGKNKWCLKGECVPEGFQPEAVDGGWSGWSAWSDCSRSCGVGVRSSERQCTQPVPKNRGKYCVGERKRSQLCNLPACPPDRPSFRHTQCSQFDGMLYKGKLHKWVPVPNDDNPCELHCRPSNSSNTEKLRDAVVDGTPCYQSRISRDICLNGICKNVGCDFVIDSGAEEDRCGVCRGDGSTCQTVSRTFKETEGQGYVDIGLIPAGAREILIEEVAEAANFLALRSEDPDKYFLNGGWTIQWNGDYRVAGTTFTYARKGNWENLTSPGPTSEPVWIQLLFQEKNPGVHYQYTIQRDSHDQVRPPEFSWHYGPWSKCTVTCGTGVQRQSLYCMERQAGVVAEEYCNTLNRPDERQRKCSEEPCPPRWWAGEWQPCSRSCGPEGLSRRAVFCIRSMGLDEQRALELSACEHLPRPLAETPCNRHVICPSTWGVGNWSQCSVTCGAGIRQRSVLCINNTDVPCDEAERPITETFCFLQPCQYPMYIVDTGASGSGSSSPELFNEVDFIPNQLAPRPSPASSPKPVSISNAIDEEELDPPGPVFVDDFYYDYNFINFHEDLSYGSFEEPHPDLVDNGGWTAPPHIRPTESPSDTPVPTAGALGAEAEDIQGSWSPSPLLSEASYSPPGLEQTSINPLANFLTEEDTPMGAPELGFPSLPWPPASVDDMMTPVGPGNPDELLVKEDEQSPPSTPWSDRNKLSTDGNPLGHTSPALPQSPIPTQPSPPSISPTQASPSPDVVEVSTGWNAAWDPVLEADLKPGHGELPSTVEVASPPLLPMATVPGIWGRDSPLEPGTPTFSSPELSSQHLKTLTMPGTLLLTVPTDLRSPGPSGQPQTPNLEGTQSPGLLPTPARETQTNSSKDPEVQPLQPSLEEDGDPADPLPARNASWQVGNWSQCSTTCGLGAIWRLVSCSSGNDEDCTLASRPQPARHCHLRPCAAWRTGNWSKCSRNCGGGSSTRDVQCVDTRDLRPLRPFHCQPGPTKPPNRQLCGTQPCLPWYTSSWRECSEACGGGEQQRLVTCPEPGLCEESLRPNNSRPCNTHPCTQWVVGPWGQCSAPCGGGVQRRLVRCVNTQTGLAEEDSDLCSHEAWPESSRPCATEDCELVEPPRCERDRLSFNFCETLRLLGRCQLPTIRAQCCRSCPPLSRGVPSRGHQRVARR
The test can be described thus: TMT10 TAILS N-terminomics, SMC1 experiment (Ad-mADAMTS7 WT vs EQ vs Luc, technical replicates, trypsin digest). The following applies: TAILS neo-N-terminal peptide abundance; log fold change, Ad-mADAMTS7 WT over Luc. The test is classed as cell-based. The gist of the method: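 Full-length mouse ADAMTS7 (WT or E373Q mutant, C-terminal 3xFLAG) or luciferase was transduced via adenovirus, 50 MOI, into HCA-SMC (SMC1, SMC2) or HUVEC. SMC1: pooled media, technical triplicates 400 ug; SMC2: process triplicates 300 ug; HUVEC: process triplicates 200 ug, bFGF2 10 ng/ml.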
Take “CDC37_43 (FQKEKEELDR; listed as Homo sapiens)”: the logFC.mWT.over.Lux stood at 1.75.

“CDH11_467 (HQEAKVPVAIR; listed as Homo sapiens)” showed a logFC.mWT.over.Lux of 2.02. In the case of “CLEC11A_50 (HLQEALGLPAGR; listed as Homo sapiens)” it was 1.08. In the case of “COL1A2_80 (QYDGKGVGLGPGPMGLMGPR; listed as Homo sapiens)”, the logFC.mWT.over.Lux amounted to 2.55. Take “COL1A2_91 (GPMGLMGPR; listed as Homo sapiens)”: the logFC.mWT.over.Lux is listed as 1.09. “COL1A2_113 (FQGPAGEPGEPGQTGPAGAR; listed as Homo sapiens)” yielded a logFC.mWT.over.Lux of 1.66. The substance “COL1A2_270 (VGNAGPAGPAGPR; listed as Homo sapiens)” yielded a logFC.mWT.over.Lux of 3.51. In the case of “COL1A2_305 (LTGAKGAAGLPGVAGAPGLPGPR; listed as Homo sapiens)” it was 1.46.

On to “COL1A2_389 (SAGPPGPPGLR; listed as Homo sapiens)”, for which the logFC.mWT.over.Lux is listed as 1.12.

“COL1A2_425 (ASGPAGVR; listed as Homo sapiens)” yielded a logFC.mWT.over.Lux of 1.17. In the case of “COL1A2_630 (VGTAGPSGPSGLPGER; listed as Homo sapiens)” it was 1.18; in that of “COL1A2_681 (VGAPGPAGATGDR; listed as Homo sapiens)”, 1.27. With “COL1A2_731 (AAGQPGAKGER; listed as Homo sapiens)” the figure was 0.84; with “COL1A2_866 (LLGAPGILGLPGSR; listed as Homo sapiens)”, 3.48. With “COL1A2_960 (AGAPGPHGPVGPAGKHGNR; listed as Homo sapiens)” the figure was 2.56; with “COL1A2_1028 (LQGLPGIAGHHGDQGAPGSVGPAGPR; listed as Homo sapiens)”, 1.51; with “COL1A2_1037 (HHGDQGAPGSVGPAGPR; listed as Homo sapiens)”, 2.30. As for “COL1A2_1127 (SLRPKDYEVDATLKSLNNQIETLLTPEGSR; listed as Homo sapiens)”, the logFC.mWT.over.Lux was 2.23. With “COL4A2_71 (YNGPPGLQGFPGLQGR; listed as Homo sapiens)” the figure was 1.77; with “COL4A2_172 (YALPKEER; listed as Homo sapiens)”, 5.97; with “COL5A1_544 (SQAQAILQQAR; listed as Homo sapiens)”, 0.87. Substance “COL8A1_90 (MKEIQPAPR; listed as Homo sapiens)” returned a logFC.mWT.over.Lux of 1.10. Substance “COL18A1_1505 (LQPPVVQLHDSNPYPR; listed as Homo sapiens)” yielded a logFC.mWT.over.Lux of 1.41. In turn, “ECM1_43 (YAAPPSPPLSR; listed as Homo sapiens)” displayed a logFC.mWT.over.Lux of 0.63. In the case of “LTBP2_1602 (EAGVHFR; listed as Homo sapiens)” it was 1.63; in that of “MAN2A1_51 (LQEKIDHLER; listed as Homo sapiens)”, 2.04; in that of “MAP1B_1065 (LTTPTKQLGAQSPGR; listed as Homo sapiens)”, 1.11. Consider “MAP4_815 (AVASTGPSSR; listed as Homo sapiens)”, for which the logFC.mWT.over.Lux worked out at 1.29. With “MAP4_816 (VASTGPSSR; listed as Homo sapiens)” the figure was 1.44.

Regarding “MGAT4B_28 (LSGQKGDVVDVYQR; listed as Homo sapiens)”, the logFC.mWT.over.Lux worked out at 1.43. With “MMP1_24 (LETQEQDVDLVQKYLEKYYNLKN(deamidated)DGR; listed as Homo sapiens)” the figure was 2.23. In turn, “NID2_291 (HSSVPLGR; listed as Homo sapiens)” came in with a logFC.mWT.over.Lux of 3.96. With “NID2_374 (VGGPDLKGQVEPWDER; listed as Homo sapiens)” the figure was 4.80; with “NID2_467 (LEDNIGSNTEVFTYNAANKETCEHNHR; listed as Homo sapiens)”, 2.58; with “NID2_951 (YAYPGAR; listed as Homo sapiens)”, 3.35. With “NUCB1_228 (LKEVWEELDGLDPNR; listed as Homo sapiens)” the figure was 1.70; with “NUCB1_317 (FLASTQR; listed as Homo sapiens)”, 4.76; with “NUCB1_389 (LQQAVLHMEQR; listed as Homo sapiens)”, 2.25.

Regarding “OS9_54 ([code q]SQSSDVVIVSSKYKQR; also: modified N-terminal Gln; listed as Homo sapiens)”, the logFC.mWT.over.Lux came to 2.67. In the case of “OS9_55 (SQSSDVVIVSSKYKQR; listed as Homo sapiens)” it was 2.23; in that of “PAPPA_41 (AAGPATCATR; listed as Homo sapiens)”, 3.83.

“PDLIM4_104 (IDPEIQDGSPTTSR; listed as Homo sapiens)” displayed a logFC.mWT.over.Lux of 1.00. As for “POLR3G_88 (LFCSHWSHIPGFK; listed as Homo sapiens)”, the logFC.mWT.over.Lux was 1.51.

Substance “POSTN_413 (FSDDTLSMDQR; listed as Homo sapiens)” registered a logFC.mWT.over.Lux of 2.29. With “POSTN_754 (IITGPEIKYTR; listed as Homo sapiens)” the figure was 1.77; with “POSTN_790 (FIEGGDGHLFEDEEIKR; listed as Homo sapiens)”, 0.87. For “POSTN_807 (LLQGDTPVR; listed as Homo sapiens)”, the logFC.mWT.over.Lux is 1.10. With “PPP1R18_295 (LSETLTR; listed as Homo sapiens)” the figure was 3.60; with “PSAP_171 (F[Met(O)]ANIPLLLYPQDGPR; listed as Homo sapiens)”, 1.13. In the case of “PXDN_1341 (SYQEDKPTKKTR; listed as Homo sapiens)” it was 6.62. With “PXDN_1393 (QKTITDLR; listed as Homo sapiens)” the figure was 4.88.

The record behind these values is US20240368668A1, “SUBSTRATES AND BIOMARKERS OF ADAMTS7” (The Broad Institute, Inc., priority 2021, published 2024).
